Measurements published in the nanobody polyreactivity screen of Harvey et al. (2022).

Assay: yeast display, Sf9 membrane polyspecificity reagent, FACS + sequencing; frameworks hold sequencing errors
Method in brief: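 A nanobody's polyreactivity label depends on the gate it was sorted from. Yeast display cells were stained with 10% biotinylated, detergent-solubilized Sf9 membrane reagent for 1 hour at 4 °C, enriched on streptavidin microbeads and sorted by FACS. The low and high (top ~1%) gates were set on anti-HA fluorescence for expression and streptavidin fluorescence for reagent binding.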

| Sequence | polyreactivity (PSR sort gate) |
| --- | --- |
| QVQLVESGGGLVQAGGSLRLSCAASGRIFSLYAMGWYRQAPGKERELVAAISKRGGSTYYADSVKGRFTISRDNAKNTVYLQMNSLKPEDTAVYYCATQLPFRKPWHDYWGQGTQVTVSS | high polyreactivity |
| QVQLVESGGGLVQAGGSLRLSCAASGSTFETYAMGWYRQAPGKERELVAVITSDGSTNYADSVKGRFTISRDNAKNTVYLQMNSLKPEDTAGYYCNADYGFYVPAYPIYWIYEYWGQGTQVTVSS | low polyreactivity |
| QDQLVESGGGLVQAGGSLRLRCAASGRTFYMYAMGWYRQAPGKERELDAVISPSGGPTYYADSVKGRFTISRDNAKNPGSLQMNSMKPEDTAVFYCATDYAYSPYRYWTRYDYWGLGTQVTVSS | high polyreactivity |
| QVQLVESGGGLVQAGGSLRLSCAASGRTLRKYAMGWYRQAPGKERELVAGFTGSAGSTYYADSVKGRFTISRDNAKNTVYLQMNSLKPEDTAVYYCAKSGLRYGFDYWGQGTQVTVSS | high polyreactivity |
| QVQLVESGGGLVQAGGSLRLSCAASGYTFNNYAMGWYRQAPGKERELVAAISSSGGSTYYADSVKGRFTISRDNAKNTRYFQMNSLKPEDTAVYYGDGRPFGHGDYRGYYYWGQGTQVTVSS | low polyreactivity |
| QVQLVESGGGVVQAGGRLRLSCAASGSIFTYYAMGWYRQAPGKERELVAAISYGGGSTYYADSVKGRFTISRDTAKNTVYLQMNSLKPEDTAVYYCNRVVGVKYGYWGQGTQVTVSS | high polyreactivity |
| QVQLVESGGGLVQAGGSLRLSCAASGFTQEDYTMGWYRQAPGQERELVARITSGGSTNYADSVKGRFTISRDNGKNTDYLQMNSLKADETAVYYCNARYAWINMDYWGQGTQVTVSS | low polyreactivity |
| QVQLVESGGGLVQAGGSLRLSCAASGFIFRHYTMGWYRQAPGKERELVAAISSGGSTYYADSVKGRFTISRDNEKNTVYLQMNSLKPEDTAVYYCAARSRIYGLLFYYWGLGTQVTVSS | high polyreactivity |
| QVQLVESGGGLVQAGGSLRLSCAASGFTFRDYAMGWSRQAPGKERELVAAISRSGDSTYYADSVKGRFTISRDNAKNTVYLQMNSLKPEDTAVYYYAAKRRYTTYDYWGQGTQVTVSS | high polyreactivity |
| QVQLVESGGGLVQAGGSLRLSSAASGSIIKYYAMGWYRQAPGKERELVAAINKSGGTTYYADSVKGRFTISRDNAQNPVYLQMNSLKPEDTAVYYCATDNTVVYQPGNMDFWGQGTQVTVSS | low polyreactivity |
| QVQLVESGGGLVQAGGSLRLSCAASGSIFRKYAMGWYRQAPGKERELVAVITTDGSTNYADSVKGLFTISRDNAKNTVYLQMNSLKPEDTAVYYCNAVRSSIGTDNDYWGQGTQVTVSS | low polyreactivity |
| QVQLVESGGGLVQAGGSLRLSCAASGRIFFLYAMGWYRQAPGKERELVASITRRGGSTYYADSVKGRFTISRDNAKNTVYLQMKSLKPEDTAVYYCAAELYRSNVYHYDYWGQGTQVTVSS | high polyreactivity |
| QVQHVESGGGLDQAGGSLRLSCAASGSIFNGYAMGWYRQAPGKERELVADIRSGGSTYYADSVKGRFTISRDNAKNTVYLQMNSLKPEDTAVYYCAGDTITDGYDYWGQGTQVTVSS | low polyreactivity |
| QVQLVESGGGLVQAGGSLRLSCAASGRTSVLYAMGWYRQAPGKEREFVAAITWNSGSTYYADSVKGRFTISRDNAKNTVYFQMNSLNPEDTAGYYCAADGLSYYVIRFDYWGQGTQVTVSS | low polyreactivity |
| QVQLVESGGGLVQAGGSLRLSCAASGFTFRTNAMGWYRQAPGKERELVAAISRSGGSTYYADSVKGRFTISRDNAKNTVYLQMNSLKPEDTAVYYCATVKVSHRRYDYWGQGTQVTLSS | high polyreactivity |
| QVQIVESGGGLVQAGGSLRLSCAASGSTFNYNAMGWYRQAPGKERELVAAITFTGGSTYADSVKGRFTISRDNAKNTVYLQMNSLKPEDTAVYYCAATIQGHDYLGTGYDYWGQGTQVTVSS | low polyreactivity |
| QVQLVESGGGLVQAGGSLRLSCAASGSIFYFYAMGWYRQAPGKERELVATITRRTGRTYYADSVKGRFTISRDNAKNTVYLQMNSLKPEDTAVYYCAARPKGPYGVWYNYWGQGTQVTVSS | high polyreactivity |
| QVQLVESGGGLVQAGGSLRLSCGASGIIFFNNVMGWYRHAPGKERELVAAITFSGSSTYYADSVKGRFTISRDNAKNTVYLQMNSMKPEDTAVYYCAAKYYGVLYTVPGDDYWGQGTLVTVSS | low polyreactivity |
| QVQLVESGGGLVQAGGSLRLSCAASGFTFTRYAMGWYRQAPGKERELVATITKRGGSTYYADSVKGRFTISRDNAKNTVYLQMNSLKPEDTAVYYCAADGASRALYDYWGQGTQVTLSS | high polyreactivity |
| QVQLGESGGGLVQAGGSLRLSCAASGSTFYPYAIGWYRQAPGKERELVARITRGDGSTYYADSVKGRFTISRDNAKNTVYVQMNSLKPEDTAVYYCIRVEYYTVWGYDYWGQGTQVTVSS | low polyreactivity |
| QVQLVESGGGLVQAGGSLRLSCAASGFTLARNTMGWYRQAPGKQRELVAAISGGGSTNYADSVKGRFTISRDNAKNTVYLLMYSLKPEHTAVYYCNADSNSDNNDYDYWGQGSQVTVSS | low polyreactivity |

| Sequence | polyreactivity (PSR sort gate) |
| --- | --- |
| QVQLVESGGGLVQAGGRLRLSCAASGSTFVLNDRGWYRQPPGKEREFVAAIDTSGGTTSYADSVKGRFTISRDNAKNTVYLQMNSLKPEDTAVYYCAALWFTRVHLFDSWGQGPQVTVSS | low polyreactivity |
| QVQLVESGGGLVQAGGSLRLSCAASGRTFWNYAMGWYRQAPGKERELVAVIRFSDGSTYYADSVKGRFTISRDNAKNTVYLQMNSLKPEDTAVYYCAADDLLDYDYWGQGTQVTVSS | low polyreactivity |
| QVQLVESGGGLVQAGGSLRLTCAATGSILSRYAMGWYRLAPGKERELVATITRRGGSTFYADSVKGRFTISRDIAKNTVYLQMNSLKPEDTAVYYCAVGRLFWGQGTQVTVSS | low polyreactivity |
| QVQLVESGGGLVQAGGSLRLSCAASGSTFSSYAMGWYRQAPGKEREIVADINGSGGRTYYADSVKGRFTISRDNAKNTVYLQMNSLKPEDTAVYYCIAYYLQGEYYTEDYWGQGTQVTVSS | low polyreactivity |
| QVQLVESGGGLVQAGGSLRLSCAASGITFRRYAMGWYRKAPGTERELVATITRGDNTYYADSVKGRFTISRDNAKNTVYLQMNSLKPEDTAVYYCAKGWPTDDYDYWGQGTQVTVSS | high polyreactivity |
| QVQLVESGGGLVQAGGSLRLSCAASGSIFPFYAMGWYRQAPGKERELVATISWSGGRTYYADSVKGRFTISRDNAKNTVYLQMNSLKPEDTAVYYCAAGSYHYPNAYYYWGHGTQVTVSS | high polyreactivity |
| QVQLVESGVGLVQAGGSLRLSCAPSGSTLGYYVMGWYRQAPGKERELVAAITGGGSTDYADSVNGRFTISRDNAKNTVYLQMNSLKPEDTAVYYCAAERTRTGQLFWWGPIYDYWGLGTQVTVSS | low polyreactivity |
| QVQLVESGGGLVQAGGSLRLSCAASGRTFYRYTMGWYRQAPGKERELVAAIDRRGGSTYYADSVKGRFTISRDNAKNTVYLQMNSLKPEDTAVYYCNAVTHYSFDYWGQGTQVTVSS | high polyreactivity |
| QVQLVESCGGLVQAGGSLRLSCAASGSTFILYAMGWYRPAPGKERELVAAISWSTGITYYADSVKGRFTISRDNAKNTVYLPMNSLKPEDTAVYYCAADAWGYHDYDASYSTGYEYWGQGTQVTVSS | high polyreactivity |
| QFHLVESGRGLVQAGGSLRLSCAASGRIFCVNAMGWYRQAPGKERELVADISSGGSTNYADSVKGRFTISRDNAKNTVYLQMNSLKPEDTAFYYCNARFRFRYKFPSRNSWGQGTLVTVSS | high polyreactivity |
| QVQLVESGGGLVQAGGSLRLSCAASGLIFPWNAMGWYRQAPGKERELVAAINGRDGSTYYADSVKGLFTISRDNAKNTVYLQMNSLKPEDTAVYYCAKGPSGVRTYREYDSWGQGPQVTVSS | low polyreactivity |
| QVQLVESGGGLVQAGGSLRLSCAASGINFIVNPMGWYRQAPGKEREFVATISANSDGTYYADSVKGRFTISRDNAKNTVYLQMNSLKPEDTAVYYWGQGTQVTVSS | low polyreactivity |
| QVQLVESGGGLVQAGASLRLSCASSGFTFGYYTMGWYRQAPGKERELVAAISWSGDSTYYADSVKGRLTISRDNAKNTVYLQMNSLKPEDTAVYYCAAEVYGSWPDYDYSGQGTQVTVSS | low polyreactivity |
| QVQLVESGGGLVQAGGSLRLSCAASGSTFDYYAMGWYRQAPGKERELVATISWSGTDTYYADSVKGRFTISRDNAKNTVYLQMNSLKPEDTAVYYCAADTVYWRGWSGYYYWGQGTQVTVSS | low polyreactivity |
| QVQLVESGGGLVQAGGSLRLSCAASGRTSGYYAMGWYRQAPGKERELVATISGNVGRTYYADSVKGRFTISRDNAKNTVYLQMNSLKPEDTAVYYCAARTYGPYDYWGQGTQVTVSS | low polyreactivity |
| QVQLVESGGGLVQAGGSLRLSCAASGFIFKANAMGWYRQAPGKERELVAVITRRGGSTYYADSVKGRFTISRDNAKNTVYLQMNSLKPEDTAVYYCAAKSYTYGYNYWGQGTQVTVSS | high polyreactivity |
| QVQLVESGGGLVQAGGSLRLSCAASGFTFERYTMGWYRQAPGKERELVATISRRSGRTSYADSVKGRFTISRDNAKNSVYLQMNSLKPEDTAVYYCAVDDAYPDRYDYWGQGTQVTVSS | high polyreactivity |
| QVQLVESGGGLVQAGGSLRLSCAASGSIFRPNAMGWYRQAPGKERELVAAITWSGDSTYYADSVKGRFTISRDNAKNTVYLQMNSLKPEDTAVYYCAKYSLVFYISLYGYWGQGTQVTVSS | low polyreactivity |
| QVQLVESGGGLVQAGGSLRLSCAASGFISYYYAMGWYRHAPGKEREFVAAITSSGGSTRYADSVKGCFTISRDNAKNTVYLQMNSLKPEDTAVYYCAAGNPYFWPYDYWGQGTQVTVSS | low polyreactivity |
| QVQLVESGGGIVQAGRSLRLSCAASGRTFYYYVMGWYRQAPGKERELVAAISRGGRTYYADSVKGRFTISRDNAKNTVYLQMNSLKPEDTAVYYCNAVPRKSRHRYDYWGQGSQVTVSS | high polyreactivity |
